Five variants from publication PMC12339742 can be followed below.

B1: PduP encapsulation peptide with its native linker fused to the N-terminus of mNeonGreen [Salmonella enterica] / itself (parent)
chain: MNTSELETLIRTILSEQLTTPAQTPVQPQGKGIFQS

Variants of B1 are the subject of experiment [1]. Put plainly: turbidity measurement (self-assembly / condensation), NaCl titration. To be noted: with itself; value read at the lowest NaCl point (est. ~12-15 mM NaCl); parent: 0.45; read off a plot.
Experiment [2] covers variants of B1. The experiment in a line: turbidity measurement (self-assembly / condensation), protein concentration titration. To be noted: with itself; value read at the third-highest protein concentration point (est. ~45 µM); parent: 0.45; read off a plot.

Consider MNTSELETLIATILSEQLTTPAQTPVQPQGKGIFQS, for which the response turned out to be 0.26 with itself [1] and 0.21 with itself [2].
Taken in the same sequence, the figures for MNTSELETLIKTILSEQLTTPAQTPVQPQGKGIFQS were 0.46 and 0.39.
On to MNTSELETLSRTILSEQLTTPAQTPVQPQGKGIFQS, for which the response in the experiment with itself [1] is 0.17.
As for MNTSELDTLIRTILSEQLTTPAQTPVQPQGKGIFQS, the response with itself [1] was 0.37; with itself [2], 0.21.
In the same order, the values of MNTSELRTLIETILSEQLTTPAQTPVQPQGKGIFQS are 0.51 and 0.5.
